Experimental findings from US20190367592A1 (AC IMMUNE, published 2019) are described below.

In test [1] the target is T1, recombinant human Tau monomer, 2N4R isoform (amino acids 2-441) (human, UniProt P10636-8 2-441).
T1 construct: range 2-441; N-terminal His-tag removed with TEV protease; also called monomeric Tau
The test can be described thus: SPR, mIgG2a captured, Tau monomer analyte, 1:1 fit. An excerpt: Antibody heavy and light chains were constructed via gene synthesis and subcloning of the resulting DNA into murine IgG2a (heavy chain) and murine kappa (light chain) mammalian expression vectors. Antibodies were expressed in CHO or 293T cells by transient co-transfection of the heavy chain and light chain plasmids and were purified with affinity resin MabSelectSure (GE Healthcare Life Sciences). Purified recombinant antibodies were screened for binding to Tau monomer protein on a Biacore T200 surface plasmon resonance instrument using a mouse IgG capture kit and a Series S CM5 chip. Antibodies in mIgG2a format diluted in 10 mM HEPES pH7.4, 150 mM NaCl, 0.05% Tween 20 (running buffer, HBSP) were captured for 30 or 45 seconds at a concentration of 1 μg/ml (antibodies 26C1, 94B2-C1, 52F6-F11.v1, 52F6-F11.v2, 11E10-B8, 55E7-F11, 125B1-H3, 123E9-A1, 30G1-B2, 66F5-A1, 89F4-A1, 93A8-D2 and 126F11-G11) or for 70 or 150 seconds at a concentration of 0.1 μg/ml (antibodies 19H6-F7, 3A4-H4, 54C1-H11 and 37D3-H9) using a flow rate of 10 μl/min. […] Association and dissociation times were monitored for 180-480 seconds and for 300-600 seconds respectively. Antibody 37D3-H9 was selected for further analysis due to the high affinity (Table 6) and the absence of NXS/T glycosylation motifs in the CDRs.
Background: SPR reads the build-up and loss of mass on a sensor chip optically.

Test [2] concerns the target T2, full-length human Tau (flTau) (human, UniProt P10636-8 1-441).
T2 construct: range 1-441; bought (SignalChem); also called human Tau-441
The test can be described thus: SPR, hybridoma Ab on anti-IgG chip, flTau analyte. As for the experimental part:
Affinity of non-purified antibodies in serum-free hybridoma supernatants was estimated by surface plasmon resonance using a Biacore T-100 instrument (GE Healthcare, United Kingdom). Antibodies were immobilized onto an anti-IgG biosensor chip, and flTau (SignalChem, Canada) was used as the target analyte. Kinetic analysis was done using a 1:1 Langmuir fit model.
For affinity measurements to flTau, antibodies were measured using SPR on a Biacore instrument, with the KDs determined. Biacore affinity measurements were done by immobilizing antibodies on an anti-IgG chip and using flTau as the target analyte.

Residue numbers refer to the chain shown, from its start.

T1 sequence (P10636 other isoform, or with tags, fused parts or gaps limits assumed): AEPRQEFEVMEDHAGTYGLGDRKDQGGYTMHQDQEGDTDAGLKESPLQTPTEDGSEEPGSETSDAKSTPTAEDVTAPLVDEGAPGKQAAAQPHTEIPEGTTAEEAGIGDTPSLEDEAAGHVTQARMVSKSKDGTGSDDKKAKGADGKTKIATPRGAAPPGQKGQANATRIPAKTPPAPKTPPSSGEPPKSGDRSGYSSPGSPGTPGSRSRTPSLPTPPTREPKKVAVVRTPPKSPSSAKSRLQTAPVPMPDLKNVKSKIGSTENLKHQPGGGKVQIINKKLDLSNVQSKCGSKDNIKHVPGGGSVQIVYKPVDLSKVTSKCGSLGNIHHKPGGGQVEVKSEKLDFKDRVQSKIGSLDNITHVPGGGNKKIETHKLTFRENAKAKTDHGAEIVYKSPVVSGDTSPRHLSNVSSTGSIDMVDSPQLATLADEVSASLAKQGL
T2 sequence (P10636 other isoform, or with tags, fused parts or gaps limits assumed): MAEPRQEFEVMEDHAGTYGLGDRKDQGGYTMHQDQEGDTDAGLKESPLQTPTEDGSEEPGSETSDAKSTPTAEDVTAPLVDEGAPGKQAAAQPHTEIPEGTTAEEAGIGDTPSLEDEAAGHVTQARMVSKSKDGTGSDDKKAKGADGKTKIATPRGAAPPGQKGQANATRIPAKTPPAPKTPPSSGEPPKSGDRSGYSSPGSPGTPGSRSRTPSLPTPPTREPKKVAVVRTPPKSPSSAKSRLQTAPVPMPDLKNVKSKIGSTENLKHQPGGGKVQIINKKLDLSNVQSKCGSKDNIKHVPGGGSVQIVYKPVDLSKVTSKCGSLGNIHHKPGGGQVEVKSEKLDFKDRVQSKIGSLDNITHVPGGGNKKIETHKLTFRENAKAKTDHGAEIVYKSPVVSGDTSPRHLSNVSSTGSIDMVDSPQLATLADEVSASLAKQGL

B1: 93A8-D2 (antibody, mouse IgG2a, V domains shown)
VH: EVQLQQSGPVLVKPGASVKMSCKASGYTFTDYYVNWVKQSHGKGLEWIGLINPNNGRTSYNQNFNDKATLTVDKSSSTAFMDLNSLTSEDSAVYYCTREGGTGYWGQGTTLSVSS
VL: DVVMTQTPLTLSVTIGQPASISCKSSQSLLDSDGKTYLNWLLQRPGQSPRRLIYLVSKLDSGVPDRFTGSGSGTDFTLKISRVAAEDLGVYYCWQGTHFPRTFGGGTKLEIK
In general, Kd refers to a measure of binding affinity in units of concentration. One may read the koff as the first-order rate constant of dissociation. For orientation: kon means the second-order rate constant of association. As for B1, in test [1], the Kd came to 6 nM, the koff turned out to be 0.002 s⁻¹ and the kon turned out to be 300000 M⁻¹ s⁻¹. For the same molecule, the dissociation constant (Kd) in test [2] came out at 4.3 nM.

B2: 83E10-D6 (antibody, V domains shown)
VH: EVQLQQSGAELVRSGASVKLSCTASGFNIKDYYIQWVKQRPEQGLEWIGWIDPENGDTDYAPKFQGKATMTADTSSNTAYLQFSSLTSEDTAVYYCNRGWGYWGQGTTLTVSS
VL: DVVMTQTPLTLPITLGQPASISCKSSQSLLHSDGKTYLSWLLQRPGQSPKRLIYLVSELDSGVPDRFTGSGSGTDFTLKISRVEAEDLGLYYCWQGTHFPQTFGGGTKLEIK
notes: hybridoma supernatant
Turning to B2, the Kd in test [2] came to 0.4 nM.

B3: 71H8-D6 (antibody, V domains shown)
VH: B2 VH
VL: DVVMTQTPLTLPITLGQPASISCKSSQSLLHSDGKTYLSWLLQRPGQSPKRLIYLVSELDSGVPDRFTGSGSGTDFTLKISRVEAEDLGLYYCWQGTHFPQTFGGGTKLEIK
notes: hybridoma supernatant
Take B3: binding in test [2] was put at a Kd of 0.8 nM.

B4: 24A11-D5 (antibody, V domains shown)
VH: EVQLQQSGPELVKPGASVKMSCKASGYTFTDYYMKWVKQSHGKSLEWIGDLNPKNGGIIYNQKFKGQATLTVDKSSSTAYMQLNSLTSEDSAVFYCARSGGYGDSFAYWGQGTLVTVSA
VL: DVLMTQTPLSLPVSLGDQASISCRSSQNIVHSNGNTYLEWYLQKPGQSPKLLIYKVSNRFSGVPDRFSGSGSGTDFTLKISRVEAEDLGIYFCFQGSHVPPTFGGGTKLEIK
notes: hybridoma supernatant
For B4, the Kd in test [2] was 2 nM.

B5: 49G10-F4 (antibody, V domains shown)
VH: QVQLQQPGAELVQPGASVKLSCKASGYTFTNYWMQWIKQRPGQGLEWIGEIDPSDSYTNYNQNFKDKATLTVDTSSRTAYMQLSSLTSEDSAVYYCTRRWYINSVRYFDVWGTGTTVTVSA
VL: B4 VL with P12S, V13A, N28S, T36I, P64S, I90V, F92Y, S97A, P101F, G105A
notes: hybridoma supernatant
B5 registered a Kd in test [2] of 1 nM.

B6: 30A1-C9 (antibody, V domains shown)
VH: GVQLQQSGPELVKPGASVKISCKTSGYTFTEYTMHWMKQSHGKSLEWIGGIDPNTGNTNYNQKFKGKATLTVDKSSSTAYMDLRSLTSEDSAVYYFYGSGYWGQGTILTVSS
VL: B4 VL with T7S, N28S, Y41F, I90V, F92Y, G96A, P101R
notes: hybridoma supernatant
Molecule B6 yielded a Kd in test [2] of 0.6 nM.

B7: 307H3E8 (antibody, V domains shown)
VH: EVKFEESGGGLVQPGGSMKLSCVASGFTFSNYWMNWVRQSPEKGLEWVAQIRLKSDNHATHYAESVKGRFTISRDDSKSTVYLQMNNLGAEDTGIYFCTEGGAYFDYWGQGTTLTVSS
VL: B4 VL with L3V, I29L, L38F, E39H, I90V, F92V, F94S, G96S, S97T
In test [2], B7 registered a Kd of 1 nM.

B8: 126F11-G11 (antibody, mouse IgG2a, V domains shown)
VH: EVQLQQSGAELVRPGASVKLSCTASGFNIKDDYMHWVKQRPEQGLEWIGWIDPENGDTEYASKFQGKATITTDTSSNTAYLQLSSLTSEDTAVYYCLDFAYGYWGQGTTLTVSS
VL: B4 VL with N28S, I90V, F92Y, T102A
Take B8: in test [1], the Kd came out at 3 nM, the koff worked out at 0.004 s⁻¹ and the kon is 2e+06 M⁻¹ s⁻¹. Besides, the Kd in test [2] came out at 4.2 nM.

B9: 231G3F10 (antibody, V domains shown)
VH: EVRLVESGGGLVQPKGSLKLSCAASGFSFNTYAMNWVRQAPGKGLEWVARIRSKRNNFATYYADSVKDRFTISRDDSKSMLYLQMNNLKTEDTAMYYCVRWGYDDPYAMDYWGQGTSVTVSS
VL: NIMMTQSPSSLAVSAGEKVTMSCKSSQSVLYSSNQKNYLAWYQQKPGQSPKLLIYWASARESGVPDRFTGSGSGTDFTLTISSVQAEDLAVYYCHQYFSSFTFGSGTKLEIK
In test [2], B9 showed a Kd of 0.2 nM.

B10: 52F6-F11 (antibody, V domains shown)
VH: QVQLQQSGTELAKPGASVKLSCKASGYTFTHYWMHWIKQRPGQGLEWIGYIYPTNDYTKYNQNFRDKATLTADESSNSAYMQLNSLTYEDSAVYYCARAGNRVFDFWGQGTTLTVSS
VL: QAVVTQESALTTSPGETVTLTCRSSTGAVTTSNFANWVQEKPDHLFTGLIGGTNNRAPGVPARFSGSLIGDKAALTITGAQTEDEAIYFCALWYSNLWVFGGGTKLTVL
notes: hybridoma supernatant
B10 yielded a Kd in test [2] of 8.4 nM.

B11: 7A11-C12 (antibody, V domains shown)
VH: QIQLVQSGPDLKKPGETVKISCKASGYTFTNYGMNWVKQAPGKGLKWMGWINTNTGEPTYAEEFKGRFAFSLETSASTAYLQIDNLKNEDTATYFCARGTVSFPYWGQGTLVTVSA
VL: DVVMSQTPLSLPVSLGDHASISCRSSQNLVHSDGNTYLHWYLQKPGQSPKLLIYKVSNRFSGVPDRFSGSGSGTDFTLKISRVEAEDLGVYFCSQSTHVIFTFGSGTKLEIK
notes: hybridoma supernatant
The molecule B11 yielded a Kd in test [2] of 0.5 nM.

B12: 26C1-C8 (antibody, V domains shown)
VH: EVHLQQSGAELVRSGASVKLSCTASGFNIKDYYMYWVKQRPEQGLEWIGWIDPENGDTEYFPKFQGKATMTADTSSKTAYLQLSSLTSEDTAVYYCNAWRARATNSALDYWGQGTSVTVSS
VL: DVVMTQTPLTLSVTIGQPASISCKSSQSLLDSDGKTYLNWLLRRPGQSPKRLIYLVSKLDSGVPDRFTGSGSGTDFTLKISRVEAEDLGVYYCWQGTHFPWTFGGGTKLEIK
notes: hybridoma supernatant
Molecule B12 registered a Kd in test [2] of 4.3 nM.

B13: 22G7-C9 (antibody, V domains shown)
VH: QIQLVQSGPELKKPGETVKISCKASGYTFTDCSIHWVKQAPGEGLKWMGWINTETGEPSYADDFKGRFAFSLETSASTAFLQINNLKSEDTASYFCGTAYYRYDGALDYWGQGTSVTVSS
VL: DIVLTQSPASLAVSLGQRATISCRASQSVSTSSYSYMHWFQQKPGQPPKLLIKYASNLESGVPARFSGSGSGTDFTLNIHPVEEEDTATYYCQHSWELPWTFGGGTKLEIK
notes: hybridoma supernatant
For B13, in test [2], the Kd amounted to 36 nM.

B14: 125B11-H3 (antibody, mouse IgG2a, V domains shown)
VH: EVKLEESGGGLVQPGGSMKLSCVASRFIFSNYWMNWVRQSPEKGLEWVAQIRLKSDNYATHYAESVKGRFTISRDDSKSSVYLQMNNLRAEDTGIYYCTGGTTYWGQGTTLTVSS
VL: DIVMTQSQKFLSTSVGDRVNITCKASQNVGTAVAWYQQKPGQSPGLLIYSASIRYTGVPDRFTGNGSGTDFTLTISDMQSEDLADYFCQQFRTYPYTFGGGTKLEIK
notes: also called 125B1-H3
For B14, in test [1], the Kd stood at 5 nM, the koff is 0.0003 s⁻¹ and the kon was 50000 M⁻¹ s⁻¹. In test [2], the Kd stood at 6 nM.

B15: 113F5-F7 (antibody, V domains shown)
VH: B14 VH with K19R, R26E, I28T, V37I, D76A, K78N, S79F, T103S
VL: DIVMTQSQKIMSTSVGDRVSITCKASQNVGTAVAWYQQRPGHSPKLLIYSASRRFSGVPDRFTGSGSGTDFTLTIINVQSEDLADYFCQQFSTYPYTFGVGTKLEIK
notes: hybridoma supernatant
B15 yielded a Kd in test [2] of 2.4 nM.

B16: 63H3-D8 (antibody, V domains shown)
VH: QIQLVQSGPELKKPGETVKISCKASGYTFTSHGMSWVKQAPGKGLKWMGWINTYSGVPTYADDFKGRFAFSLETSASTAYLQINNLKNEDTATYFCARSELSWFAYWGQGTLVTVSA
VL: DIVMTQSPATLSVTPGDRVSLSCRASQSISDYLHWYQQKSHESPRLLIKYASQSISGIPSRFSGSGSGSDFTLSINSVEPEDVGVYYCQNGHSFPYTFGGGTKLEIK
notes: hybridoma supernatant
With B16, the Kd in test [2] turned out to be 0.5 nM.

B17: 64B9-F12 (antibody, V domains shown)
VH: B16 VH with K12R, S31T, H32Y, K43E, V57M, S77R
VL: B16 VL with S93N
notes: hybridoma supernatant
The molecule B17 came in with a Kd in test [2] of 2 nM.

B18: 65B1-A2 (antibody, V domains shown)
VH: QVQLKESGPGLVAPSQSLSITCTISGFSLTTYGVHWVRQPPGKGLEWLVVIWSDGSTTYNSALKSRLSISKDNSKSQVFLKMNSLQTDDTAMYYCARQGGFITTAYYAMDYWGQGTSVTVSS
VL: DIVMSQSPSSLAVSAGEKVTMSCKSSQSLLNSRTRKNYLAWYQQKPGQSPKLLIYWASTRESGVPDRFTGSGSGTDFTLTISSVQAEDLAVYYCKQSYNLYTFGGGTKLEIK
notes: hybridoma supernatant
Take B18: in test [2], the Kd came to 0.8 nM.
